The results in this text go back to patent US8916159B2, “Selenocysteine mediated hybrid antibody molecules” (The United States of America, as represented by the …, priority 2007, dated 2014).

Read-outs that look alike come from different tables or passages of the source. Non-standard residues stand in square brackets, D forms with d. Groups on a side chain read outwards from the residue. No end group written: not given here. folate‑alkyne = folate derivative bearing an alkyne group; Sec = N[C@@H](C[SeH])C(=O)O; biotin‑azide = biotin-azide

The target of one data set is T1, folate receptor (Homo sapiens, UniProt P15328).
T1 construct: endogenous in cells; host or cells: SKOV-3
T1 sequence (P15328 25-234): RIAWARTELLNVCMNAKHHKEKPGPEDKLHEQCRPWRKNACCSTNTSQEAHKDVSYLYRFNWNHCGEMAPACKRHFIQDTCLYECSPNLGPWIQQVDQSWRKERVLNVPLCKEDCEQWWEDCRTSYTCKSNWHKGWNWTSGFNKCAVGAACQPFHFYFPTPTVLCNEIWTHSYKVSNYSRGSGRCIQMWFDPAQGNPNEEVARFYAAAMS
In words: Flow cytometry binding to SKOV-3 cells expressing folate receptor. Particulars: SKOV-3, three click reaction conditions, FIG. 17. As to the method:
The results are depicted in the flow cytometry plot of FIG. 17.
The folate was further equipped with an alkyne group using methods described in Thomas et al., Poster MEDI-409, 238th ACS National Meeting, Washington, D.C. (Aug. 16-20, 2009). Using azide-alkyne Huisgen cycloaddition (“click chemistry”) under various reaction conditions, biotin-azide was added to the resulting Fc-Sec-His/folate-alkyne. The results of three reaction conditions are also depicted in the flow cytometry plot of FIG. 17.
For orientation: A flow cytometer gives signals particle by particle.

The target of another data set is T2, integrin α4 (Homo sapiens, UniProt P05556+P13612).
T2 construct: endogenous in cells
Description: Competition with anti-integrin α4 mAb for binding to integrin α4β1-expressing lymphoma cells. The following applies: PEG-SU-Lys-Lys-mal linker conjugate, FIG. 14. From the text: Using solid-phase synthesis techniques as described in Thomas et al., Bioorg. Medicinal Chem. Letters, 18: 5785-88 (2008), the PEG-SU-Lys-Lys-mal linker was used to couple LLP2A to Fc-Sec. A biotin reporter molecule was employed as described in Example 2 to allow detection of Fc covalent adducts by avidin pull-down experiments followed by ELISA visualization. The Fc-Sec-LLP2A conjugate was then incupated with integrin α4β1-expressing cells. The cells were washed and then treated with Cy5-labeled rabbit anti-human IgG. Under these conditions, cells only fluoresced if both the Fc and LLP2A components of the hybrid construct were present.

The subject of data set [1] is Raji cells. In words: Flow cytometry binding to Raji cells. Particulars: for fluorescence signal on Raji cells after exposure of protein to FITC maleimide derivative: FIG. 11C. Set-up: species or system Human. How it is done:
Flow cytometry assays were conducted on the resulting conjugates. Human Burkitt's lymphoma cell line Raji was purchased from ATCC. All incubations were for 1 hour on ice. […] After washing twice with 1% (v/v) FCS/PBS, the cells were incubated with a 1:25 dilution of PE-coupled streptavidin (BD Biosciences) or with FITC-coupled goat anti-human Fab polyclonal (Fab′)2 fragments (Jackson ImmunoResearch Laboratories). […] After washing twice as before, the cells were resuspended in 400 μL 1% (v/v) FCS/PBS and analyzed using a FACScan instrument (Becton-Dickinson). For the competition experiment, the cells were first incubated with the anti-CD52 monoclonal antibody CAMPATH® or Rituximab (all 0.6 μM). For detection, a 1:25 dilution of PE-coupled streptavidin (BD Biosciences) was used.

A short description of data set [2]: Serum levels in mice after i.v. injection, flow cytometry using Raji cells. In kind it is in vivo, C57BL/6 mice. Particulars: i.v. 100 μL of 3 mg/mL, bleeds 30 min to 96 h. As to the method: The mouse study was carried out by Biocon, Inc. (Rockville, Md.) in accordance with the Guide for the Care and Use of Laboratory Animals published by the National Institutes of Health. […] Sera from retro-orbital bleeds were prepared 30 min, 24 h, 48 h, 72 h, and 96 h after injection. Sera were diluted ten-fold in 1% (v/v) FCS/PBS and analyzed by flow cytometry using Raji cells and Cy5-coupled goat anti-human F(ab′)2 polyclonal antibodies (Jackson ImmunoResearch) or PE-coupled streptavidin as described in Example 10 (FIG. 16C).

For data set [3], the system named is Raji cells. Particulars: 0.6 μM; for complement-dependent cytotoxicity with rabbit complement: 10% rabbit complement 2 hours 37° C. How it is done:
To determine whether Sec-conjugation had any effect on the cytotoxic effects of Rituximab, Raji cells were centrifuged and resuspended in 1% (v/v) FCS/PBS, and aliquots of 50 μL containing 5×10^5 cells were distributed into a V-bottom 96-well plate (Corning). After incubation with Rituximab, Rituxi-Sec-His/fluorescein, or Rituxi-Fab-Sec-His/biotin (0.6 μM) for 1 hour on ice, cells were washed twice and incubated with 10% rabbit complement of 3-4 weeks old rabbits (Pel-Freez) for 2 hours at 37° C. After the addition of 100 μg/ml propidium iodide (PI), dead cells were detected by PI accumulation using a FACScan instrument (Becton-Dickinson).

With “Fc-Sec-His/folate-alkyne: Fc-Sec-His folate conjugate equipped with an alkyne group; biotin-azide clicked on (chain (part 1 of 2) EPKSSDKTHTCPPCP; chain (part 2 of 2) A[Sec]([folate‑alkyne-biotin‑azide])HHHHHH; not fully specified; cysteine pairing not given here; also: biotin-azide clicked on)”, the “folate binding after biotin-azide click onto alkyne conjugate” value in the data set with folate receptor was “retained its folate binding properties”.
Take “Fc-Sec-LLP2A: LLP2A coupled to Fc-Sec using the PEG-SU-Lys-Lys-mal trifunctional linker with biotin reporter (chain (part 1 of 2) EPKSSDKTHTCPPCP; chain (part 2 of 2) Ala-X; not fully specified (some residues); cysteine pairing not given here; also: LLP2A coupled via PEG-SU-Lys-Lys-mal trifunctional linker with biotin reporter, site not given here)”: the “binding to lymphoma cells in the presence of anti-integrin α4 mAb” value with integrin α4 is on record as “diminished binding”.
For the substance “Rituximab-stop: Rituximab protein without inserted selenocysteine”, the “fluorescence signal on Raji cells after exposure of protein to FITC maleimide derivative” value with Raji cells [1] is on record as “only basal levels”.
“Rituximab: commercially available CD20 antibody [reference compound]”: in data set [2], the “serum signal over the course of the experiment” value is listed as “only marginal weakening”. In addition, the “binding to Raji cells” value in the data set with Raji cells [1] (0.6 μM, 1 hour on ice, FIG. 11A) was “equal affinities”. Besides, the “complement-dependent cytotoxicity with rabbit complement” value in the data set with Raji cells [3] is recorded as “strong cytotoxic effect”. Moreover, the “cytotoxicity of antibody alone, without rabbit serum” value in the data set with Raji cells [3] (no rabbit serum, FIG. 12A) is recorded as “neither the antibody nor rabbit serum alone mediated complement-dependent cytotoxicity”.
For “Rituximab-Sec-His/fluorescein: Rituximab-Sec-His conjugated at Sec to fluorescein-5-maleimide (FITC derivative with maleimide moiety)”, the “fluorescence signal on Raji cells after exposure of protein to FITC maleimide derivative” value in the data set on Raji cells [1] was “clear and homogenous signal”. Besides, the “complement-dependent cytotoxicity with rabbit complement” value with Raji cells [3] (listed as Rituxi-Sec-His/fluorescein) was “as potent as Rituximab”; in the data set on Raji cells [3] (listed as Rituximab-Sec-His/FITC) it was “equal cytotoxicity”.
